Each block holds one binder with its values, some of them ahead of it.
Assays:
Experiment in all cases: ITC
[1] = target: CBS-pair domain of human CNNM3 (GST tag removed) (human, UniProt Q8NE01 309-452)
PRL3 R138E = PRL3 R138E (human, UniProt O75365 1-169, R138E)
PRL3 C49A = PRL3 C49A (human, UniProt O75365 1-169, C49A)
[2] = target: PRL3 with Arg138 mutated to alanine (human, UniProt O75365 1-169, Arg138 to alanine)
PRL3 C49S = PRL3 C49S (human, UniProt O75365 1-169, C49S)
PRL3 C104S = PRL3 C104S (human, UniProt O75365 1-169, C104S)
PRL3 L108A = PRL3 L108A (human, UniProt O75365 1-169, L108A)
PRL3 C104A = PRL3 C104A (human, UniProt O75365 1-169, C104A)
[3] = target: PRL3 with the catalytic cysteine (Cys104) mutated to glutamic acid (human, UniProt O75365 1-169, Cys104 to glutamic acid)
PRL3 D72A = PRL3 D72A (human, UniProt O75365 1-169, D72A)

- Kd [1]: 11 nM
B1: PRL2 phosphatase (as used in ITC) (enzyme)
chain: MNRPAPVEISYENMRFLITHNPTNATLNKFTEELKKYGVTTLVRVCDATYDKAPVEKEGIHVLDWPFDDGAPPPNQIVDDWLNLLKTKFREEPGCCVAVHCVAGLGRAPVLVALALIECGMKYEDAVQFIRQKRRGAFNSKQLLYLEKYRPKMRLRFRDTNGHCCVQ

- Kd (PRL3 R138E): 530 nM
- Kd (PRL3 C49A): 72 nM
- Kd [2]: 320 nM
- Kd (PRL3 C49S): 105 nM
- Kd (PRL3 C104S): 1400 nM
- Kd (PRL3 L108A): 1700 nM
- Kd (PRL3 C104A): 180 nM
- Kd [3]: 2800 nM
- Kd (PRL3 D72A): 215 nM
B2: CNNM3 CBS-pair domain as a GST fusion (domain or fragment)
chain: LRCRTVEDVLTPLEDCFMLDASTVLDFGVLASIMQSGHTRIPVYEEERSNIVDMLYLKDLAFVDPEDCTPLSTITRFYNHPLHFVFNDTKLDAVLEEFKRGKSHLAIVQKVNNEGEGDPFYEVLGLVTLEDVIEEIIRSEILDE

Source: PMC5427921 (2017)
